Blank lines part the entries; values can stand above or below the substance they belong to.
Tests used:
[1] = target: GST-FKBP12 (mouse) (UniProt P26883); experiment: pull-down
[2] = target: Porcine brain tubulin (growing microtubules) (porcine); experiment: TIRF microscopy of GFP-CRMP2A on growing microtubules in vitro

UniProt P26883, sequence (P26883 whole entry): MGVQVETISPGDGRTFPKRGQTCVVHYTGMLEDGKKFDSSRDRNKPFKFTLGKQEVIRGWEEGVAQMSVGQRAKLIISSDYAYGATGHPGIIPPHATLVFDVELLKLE

Substance: Cdk5-phosphorylated FLAG-CRMP2A (natural protein)
pull-down signal normalized to the input, relative to CRMP2A without Cdk5 [1]: 0.39

Substance: FLAG-CRMP2A S27A, expressed under high Cdk5 activity (natural protein)
pull-down signal relative to WT CRMP2A in the presence of Cdk5 [1]: 2.57

Substance: FLAG-CRMP2AΔ604 (CRMP2A 1-604) (domain or fragment)
pull-down signal normalized to the input, relative to CRMP2A [1]: 2.82

Substance: FLAG-tagged GFP-CRMP2A (natural protein)
length of the GFP-positive ends [2]: 0.297 um
length of the GFP-positive ends (with FKBP12) [2]: 0.133 um
persistence of GFP signal [2]: 33.1 s
persistence of GFP signal (with FKBP12) [2]: 18.7 s

Next, values leading:

pull-down signal relative to WT CRMP2A in the presence of Cdk5 [1]: 2.59
Substance: FLAG-CRMP2A S27A, S623A, expressed under high Cdk5 activity (natural protein)

pull-down signal relative to WT CRMP2A in the presence of Cdk5 [1]: 1.75
Substance: FLAG-CRMP2A S623A, expressed under high Cdk5 activity (natural protein)

From doi:10.1101/2025.01.13.632804
